One data set addresses c-Src SH2. The data set can be described thus: SH2 binding enrichment of the phosphorylated peptide, bacterial display (enrichment ratio); higher = better substrate or ligand; peptides without Tyr show the background.
For the next data set, the target named is Grb2 SH2 (UniProt P62993). The data set is described as above.
In a further data set the target is SHP2-C SH2. Described as above.
The test system of another data set is c-Abl (mouse). The data set can be described thus: phosphorylation enrichment, bacterial display (enrichment ratio); higher = better substrate or ligand; peptides without Tyr show the background.
The target in another data set is Fes (UniProt P07332). Described as above.
In the next data set the test system is c-Src. The description is as above.
The next data set deals with Fer (mouse). The description is as above.
In the next data set the test system is AncSZ. Described as above.
The next data set deals with Fyn (UniProt P06241). The description is as above.
A further data set addresses EPHB1 (UniProt P54762). Described as above.
The target of the next data set is EPHB2 (UniProt P29323). The data set is described as above.
The target of the next data set is FGFR3 (UniProt P22607). The data set is described as above.
In the next data set the target is Jak2 (UniProt O60674). The description is as above.
The target of another data set is FGFR1 (UniProt P11362). Described as above.
In a further data set the target is MERTK (UniProt Q12866). The description is as above.
The next data set addresses Hck (UniProt P08631). The description is as above.
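Throughout, for SH2 binding enrichment of the phosphorylated peptide, bacterial display: peptide library displayed on the E. coli surface as eCPX fusions, selected cells deep-sequenced, score is each peptide's frequency after selection divided by its frequency in the input.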
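Throughout, for phosphorylation enrichment, bacterial display: 11-residue human phosphosite peptides and single-mutation variants displayed on the E. coli surface, counted by deep sequencing, each peptide's frequency after selection divided by its frequency in the unselected input library; frequency after pTyr selection over input frequency; kinase dosed for 20-30% of maximal phosphorylation in three min.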

EPHB1, sequence (P54762 whole entry, looked up): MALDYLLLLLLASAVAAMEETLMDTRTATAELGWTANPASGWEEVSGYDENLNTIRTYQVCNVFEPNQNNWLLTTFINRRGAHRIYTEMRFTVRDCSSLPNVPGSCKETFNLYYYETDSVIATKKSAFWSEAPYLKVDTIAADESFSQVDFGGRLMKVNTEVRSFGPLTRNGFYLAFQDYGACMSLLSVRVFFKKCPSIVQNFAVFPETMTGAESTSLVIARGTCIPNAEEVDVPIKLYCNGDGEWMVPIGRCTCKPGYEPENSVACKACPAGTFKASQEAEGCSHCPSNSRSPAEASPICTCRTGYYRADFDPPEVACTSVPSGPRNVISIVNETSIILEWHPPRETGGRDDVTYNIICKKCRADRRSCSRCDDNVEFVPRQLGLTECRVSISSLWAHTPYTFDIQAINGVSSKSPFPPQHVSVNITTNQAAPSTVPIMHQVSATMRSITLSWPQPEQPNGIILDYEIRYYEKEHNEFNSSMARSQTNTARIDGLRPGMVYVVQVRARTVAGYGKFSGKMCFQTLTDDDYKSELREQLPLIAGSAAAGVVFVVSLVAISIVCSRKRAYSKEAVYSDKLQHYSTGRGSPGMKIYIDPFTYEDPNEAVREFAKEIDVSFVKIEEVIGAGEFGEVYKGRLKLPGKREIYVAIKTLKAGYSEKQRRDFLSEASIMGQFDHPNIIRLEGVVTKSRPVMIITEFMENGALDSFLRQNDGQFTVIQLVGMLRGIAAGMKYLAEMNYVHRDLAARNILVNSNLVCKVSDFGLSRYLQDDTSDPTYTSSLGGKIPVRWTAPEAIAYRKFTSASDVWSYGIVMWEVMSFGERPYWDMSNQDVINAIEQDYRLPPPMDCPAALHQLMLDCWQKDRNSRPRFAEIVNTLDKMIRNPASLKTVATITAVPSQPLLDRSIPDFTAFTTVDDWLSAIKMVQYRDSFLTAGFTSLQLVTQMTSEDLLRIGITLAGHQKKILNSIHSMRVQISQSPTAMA
Grb2 SH2, sequence (P62993 whole entry, looked up): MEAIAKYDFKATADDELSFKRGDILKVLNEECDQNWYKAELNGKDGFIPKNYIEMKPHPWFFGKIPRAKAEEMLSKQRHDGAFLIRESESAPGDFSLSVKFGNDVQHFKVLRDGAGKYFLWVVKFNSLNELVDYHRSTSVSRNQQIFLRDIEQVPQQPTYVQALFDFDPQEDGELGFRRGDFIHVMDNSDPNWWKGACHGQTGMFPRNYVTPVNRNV
FGFR3, sequence (P22607 whole entry, looked up): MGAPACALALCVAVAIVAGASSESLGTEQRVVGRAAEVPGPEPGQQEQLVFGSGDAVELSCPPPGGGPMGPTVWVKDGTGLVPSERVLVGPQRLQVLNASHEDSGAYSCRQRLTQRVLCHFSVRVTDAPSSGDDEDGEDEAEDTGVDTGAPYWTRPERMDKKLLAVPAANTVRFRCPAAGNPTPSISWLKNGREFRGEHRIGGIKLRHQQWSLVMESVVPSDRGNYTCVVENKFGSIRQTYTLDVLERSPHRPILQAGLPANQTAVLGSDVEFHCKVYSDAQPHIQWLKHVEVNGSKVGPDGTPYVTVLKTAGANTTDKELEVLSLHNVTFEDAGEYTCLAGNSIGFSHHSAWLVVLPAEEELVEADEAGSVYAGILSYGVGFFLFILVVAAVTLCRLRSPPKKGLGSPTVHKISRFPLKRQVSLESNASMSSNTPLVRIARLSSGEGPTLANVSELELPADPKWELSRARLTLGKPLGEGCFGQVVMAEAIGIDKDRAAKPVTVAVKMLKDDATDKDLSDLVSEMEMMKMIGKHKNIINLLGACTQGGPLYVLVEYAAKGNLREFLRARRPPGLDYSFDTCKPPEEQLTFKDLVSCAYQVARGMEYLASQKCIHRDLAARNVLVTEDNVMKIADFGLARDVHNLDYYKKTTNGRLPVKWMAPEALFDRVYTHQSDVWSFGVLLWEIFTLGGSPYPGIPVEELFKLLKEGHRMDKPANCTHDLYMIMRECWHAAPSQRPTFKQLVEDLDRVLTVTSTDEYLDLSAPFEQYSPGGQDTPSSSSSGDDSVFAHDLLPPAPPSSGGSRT
EPHB2, sequence (P29323 whole entry, looked up): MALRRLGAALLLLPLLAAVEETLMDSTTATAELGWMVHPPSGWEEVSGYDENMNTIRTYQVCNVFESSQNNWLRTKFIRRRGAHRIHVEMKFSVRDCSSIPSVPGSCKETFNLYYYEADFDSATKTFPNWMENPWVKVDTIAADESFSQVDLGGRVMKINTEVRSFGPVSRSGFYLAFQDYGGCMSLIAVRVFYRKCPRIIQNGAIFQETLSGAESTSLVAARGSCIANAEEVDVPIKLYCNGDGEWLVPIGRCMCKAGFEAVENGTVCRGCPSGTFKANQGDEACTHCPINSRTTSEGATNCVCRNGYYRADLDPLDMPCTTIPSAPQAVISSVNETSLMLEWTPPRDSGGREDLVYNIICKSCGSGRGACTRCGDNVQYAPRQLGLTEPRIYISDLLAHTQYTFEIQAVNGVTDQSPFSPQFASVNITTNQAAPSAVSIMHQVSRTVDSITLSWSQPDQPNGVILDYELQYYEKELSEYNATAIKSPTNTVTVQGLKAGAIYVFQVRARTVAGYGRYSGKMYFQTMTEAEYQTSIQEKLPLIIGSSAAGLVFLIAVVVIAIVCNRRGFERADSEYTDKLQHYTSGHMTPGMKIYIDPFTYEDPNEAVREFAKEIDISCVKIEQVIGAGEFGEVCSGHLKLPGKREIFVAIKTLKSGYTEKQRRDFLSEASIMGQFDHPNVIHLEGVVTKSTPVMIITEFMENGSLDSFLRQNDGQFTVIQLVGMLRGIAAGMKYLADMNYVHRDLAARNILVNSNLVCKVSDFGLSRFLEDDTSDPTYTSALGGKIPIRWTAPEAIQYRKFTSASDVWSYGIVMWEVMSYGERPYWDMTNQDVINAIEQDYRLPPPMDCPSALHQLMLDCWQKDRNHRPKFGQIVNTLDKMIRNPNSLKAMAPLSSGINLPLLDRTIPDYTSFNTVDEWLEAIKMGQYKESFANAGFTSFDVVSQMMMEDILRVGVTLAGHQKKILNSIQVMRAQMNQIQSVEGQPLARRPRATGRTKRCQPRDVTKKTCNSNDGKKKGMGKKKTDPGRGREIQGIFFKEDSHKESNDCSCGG
Hck, sequence (P08631 whole entry, looked up, the tested form may be a part): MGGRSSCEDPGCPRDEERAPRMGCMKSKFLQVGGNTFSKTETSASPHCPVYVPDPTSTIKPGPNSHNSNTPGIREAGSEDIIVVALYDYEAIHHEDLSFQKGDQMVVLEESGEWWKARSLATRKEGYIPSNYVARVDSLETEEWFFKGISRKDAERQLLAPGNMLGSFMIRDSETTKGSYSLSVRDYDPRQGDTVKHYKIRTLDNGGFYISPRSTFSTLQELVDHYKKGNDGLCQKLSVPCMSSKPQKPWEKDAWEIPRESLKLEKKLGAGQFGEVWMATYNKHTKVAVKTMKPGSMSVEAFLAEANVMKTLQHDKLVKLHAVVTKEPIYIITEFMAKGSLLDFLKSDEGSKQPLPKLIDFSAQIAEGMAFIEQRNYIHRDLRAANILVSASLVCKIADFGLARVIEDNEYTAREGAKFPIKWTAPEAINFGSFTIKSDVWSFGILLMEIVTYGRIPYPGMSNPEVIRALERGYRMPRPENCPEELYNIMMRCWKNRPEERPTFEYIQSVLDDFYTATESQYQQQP
Fyn, sequence (P06241 whole entry, looked up): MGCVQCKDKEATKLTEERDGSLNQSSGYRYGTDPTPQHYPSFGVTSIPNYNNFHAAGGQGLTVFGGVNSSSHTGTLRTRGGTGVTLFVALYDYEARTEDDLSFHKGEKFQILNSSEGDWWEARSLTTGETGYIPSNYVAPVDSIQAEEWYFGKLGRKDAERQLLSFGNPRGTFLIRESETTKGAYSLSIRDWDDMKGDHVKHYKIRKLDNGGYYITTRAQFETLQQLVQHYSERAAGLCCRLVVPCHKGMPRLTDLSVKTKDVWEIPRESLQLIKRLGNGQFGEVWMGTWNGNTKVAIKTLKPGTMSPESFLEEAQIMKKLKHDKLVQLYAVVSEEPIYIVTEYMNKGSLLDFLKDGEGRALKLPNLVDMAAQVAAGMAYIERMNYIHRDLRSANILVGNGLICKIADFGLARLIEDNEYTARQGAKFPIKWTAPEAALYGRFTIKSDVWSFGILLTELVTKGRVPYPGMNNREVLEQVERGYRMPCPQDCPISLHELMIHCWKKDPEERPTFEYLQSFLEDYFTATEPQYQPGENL
FGFR1, sequence (P11362 whole entry, looked up): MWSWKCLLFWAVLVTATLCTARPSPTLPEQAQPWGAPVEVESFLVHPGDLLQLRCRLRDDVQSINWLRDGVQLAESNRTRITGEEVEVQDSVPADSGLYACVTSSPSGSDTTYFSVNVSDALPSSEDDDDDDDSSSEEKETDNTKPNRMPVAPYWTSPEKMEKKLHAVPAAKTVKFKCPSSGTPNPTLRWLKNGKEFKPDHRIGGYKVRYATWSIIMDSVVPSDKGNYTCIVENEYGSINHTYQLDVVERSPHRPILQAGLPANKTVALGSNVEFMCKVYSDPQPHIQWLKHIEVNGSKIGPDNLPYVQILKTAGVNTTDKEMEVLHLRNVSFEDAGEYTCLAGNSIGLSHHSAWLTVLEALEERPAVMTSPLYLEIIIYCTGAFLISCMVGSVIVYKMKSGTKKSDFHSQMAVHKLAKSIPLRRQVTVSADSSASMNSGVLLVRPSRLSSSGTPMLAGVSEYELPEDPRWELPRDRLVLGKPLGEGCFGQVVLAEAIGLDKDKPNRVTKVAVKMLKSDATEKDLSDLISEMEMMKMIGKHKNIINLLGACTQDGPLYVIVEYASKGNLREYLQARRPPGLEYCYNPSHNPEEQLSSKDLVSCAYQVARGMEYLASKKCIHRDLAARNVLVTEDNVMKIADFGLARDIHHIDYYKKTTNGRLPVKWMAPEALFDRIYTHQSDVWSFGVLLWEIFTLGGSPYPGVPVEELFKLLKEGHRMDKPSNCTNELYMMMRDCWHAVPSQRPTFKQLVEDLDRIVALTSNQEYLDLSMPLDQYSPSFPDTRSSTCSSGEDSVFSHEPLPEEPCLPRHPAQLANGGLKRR

For the sequence IFCIQYNIRAF [MYH4_Y820], the SH2 binding enrichment is 0.685 with c-Src SH2, 1.08 with Grb2 SH2 and 1.07 with SHP2-C SH2. Further, the phosphorylation enrichment was determined as 1.35 with c-Abl (mouse); 1.76 with Fes; 0.599 in the data set with c-Src; 0.596 with Fer (mouse); 1.57 with AncSZ; 0.445 with Fyn. The phosphorylation enrichment with EPHB1 was found to be 0.821; in the data set with EPHB2, 0.678; with FGFR3, 1.08; in the data set with Jak2, 1.57; with FGFR1, 0.525; with MERTK, 0.436. Besides, the phosphorylation enrichment with Hck was found to be 0.608.
For the sequence IFRASYVPFAA [RBM47_Y541_G538R_YF], the SH2 binding enrichment came to 0.542 with c-Src SH2, 0.8 with Grb2 SH2 and 0.681 with SHP2-C SH2. Also, the phosphorylation enrichment in the data set on c-Abl (mouse) is 0.527; with Fes it was 1.04; in the data set with c-Src, 0.384; with Fer (mouse) it was 0.388; in the data set on AncSZ it was 0.859; in the data set with Fyn, 0.463. The phosphorylation enrichment in the data set with EPHB1 is 0.645; with EPHB2 it was 0.548; with FGFR3, 0.635; with Jak2 it was 0.784; with FGFR1 it was 0.508; in the data set with MERTK, 0.389. For the same sequence, the phosphorylation enrichment with Hck was found to be 0.506.
For the sequence IGCHAYGDQFR [IDH1_Y135_R132C_YF], the SH2 binding enrichment turned out to be 0.516 with c-Src SH2, 0.825 with Grb2 SH2 and 0.577 with SHP2-C SH2. In addition, the phosphorylation enrichment in the data set with c-Abl (mouse) worked out at 0.82; with Fes it was 1.04; with c-Src it was 0.611; in the data set on Fer (mouse) it was 0.55; in the data set with AncSZ, 0.933; in the data set with Fyn it was 0.495. Moreover, the phosphorylation enrichment in the data set with EPHB1 is 0.516; with EPHB2, 0.532; with FGFR3, 0.659; with Jak2, 0.933; in the data set with FGFR1, 0.529; with MERTK, 0.497. Besides, in the data set with Hck, the phosphorylation enrichment was 0.51.
As for IGNGFYFRVFS [MYBPC3_Y1136_YF], the SH2 binding enrichment with c-Src SH2 worked out at 0.466; with Grb2 SH2 it was 0.964; in the data set with SHP2-C SH2, 1.06. The phosphorylation enrichment in the data set with c-Abl (mouse) came out at 0.818; with Fes, 1.38; in the data set with c-Src, 0.361; with Fer (mouse), 0.519; in the data set with AncSZ it was 1.05; with Fyn, 0.365. Besides, the phosphorylation enrichment with EPHB1 was 0.64; in the data set with EPHB2, 0.568; with FGFR3, 0.756; in the data set with Jak2 it was 1.43; in the data set with FGFR1, 0.438; with MERTK, 0.374. Moreover, the phosphorylation enrichment in the data set with Hck stood at 0.45.
In the case of IGVDSYSVCKR [RPS6KA3_Y433_G431D], the SH2 binding enrichment with c-Src SH2 turned out to be 0.971; with Grb2 SH2 it was 0.908; with SHP2-C SH2, 0.627. In addition, the phosphorylation enrichment with c-Abl (mouse) stood at 0.417; with Fes it was 0.577; with c-Src, 0.322; in the data set on Fer (mouse), 0.366; in the data set with AncSZ, 0.537; in the data set with Fyn, 0.347. In addition, the phosphorylation enrichment with EPHB1 is 0.402; with EPHB2, 0.418; in the data set with FGFR3, 0.405; with Jak2, 0.462; with FGFR1 it was 0.381; with MERTK, 0.338. Moreover, the phosphorylation enrichment in the data set with Hck came to 0.387.
For the sequence IHADIYRWFNI [MARS1_Y344], the SH2 binding enrichment is 1.19 with c-Src SH2, 1.65 with Grb2 SH2 and 1.17 with SHP2-C SH2. Further, the phosphorylation enrichment in the data set with c-Abl (mouse) is 6.74; with Fes, 1.42; with c-Src it was 3.77; in the data set on Fer (mouse), 8.95; in the data set with AncSZ it was 1.22; with Fyn it was 2.23. The phosphorylation enrichment in the data set with EPHB1 came to 0.716; in the data set with EPHB2, 0.6; with FGFR3, 6.99; in the data set with Jak2 it was 1.12; with FGFR1, 9.43; with MERTK, 5. For the same sequence, the phosphorylation enrichment with Hck was 2.14.
As for IHYPPYTDWNQ [ALDH3B2_Y365], the SH2 binding enrichment in the data set with c-Src SH2 came to 1.25; with Grb2 SH2 it was 0.883; in the data set with SHP2-C SH2 it was 0.71. The phosphorylation enrichment with c-Abl (mouse) came out at 0.938; with Fes, 0.933; with c-Src it was 0.573; in the data set with Fer (mouse) it was 2.21; in the data set on AncSZ it was 0.889; in the data set with Fyn, 0.512. Moreover, the phosphorylation enrichment was determined as 0.527 in the data set with EPHB1; 0.676 with EPHB2; 0.881 in the data set with FGFR3; 0.736 in the data set with Jak2; 1.14 with FGFR1; 0.429 with MERTK. Moreover, in the data set with Hck, the phosphorylation enrichment is 0.655.
For IIRFNYLLDVL [FGFR4_Y237_S232I_YF], the SH2 binding enrichment with c-Src SH2 is 1.13; with Grb2 SH2, 2.13; in the data set with SHP2-C SH2 it was 2.19. Besides, the phosphorylation enrichment with c-Abl (mouse) came to 0.996; with Fes it was 1.31; in the data set on c-Src it was 0.525; with Fer (mouse) it was 0.47; in the data set with AncSZ, 1.2; in the data set with Fyn it was 0.513. For the same sequence, the phosphorylation enrichment with EPHB1 came to 0.688; with EPHB2 it was 0.478; in the data set with FGFR3, 0.763; with Jak2, 0.89; with FGFR1, 0.809; with MERTK, 0.465. Besides, in the data set with Hck, the phosphorylation enrichment amounted to 0.522.

Source of the values: the supplement of paper PMC10065799, “High-throughput profiling of sequence recognition by tyrosine kinases and SH2 domains using bacterial peptide display” (eLife, 2023).
